# Tests used:
# [1] = Aminotransferase activity, N7-acetyl-1,7-diaminoheptane to N7-acetyl-7-aminoheptanal, L-alanine formation by RP-HPLC; assay type: biochemical; conditions: cell free extract, 10 mM substrate, 25° C., 4 h, against empty vector control, FIG. 51
# Procedure: The activity of the N-terminal His-tagged aminotransferases of SEQ ID NOs: 116 (GenBank Accession No. AAQ59697.1), 119 (RefSeq Accession No. NP_417544.5), 125 (GenBank Accession No. AAGO8191.1), 126 (GenBank Accession No. AAY39893.1), 127 (GenBank Accession No. ABA81135.1), and 128 (GenBank Accession No. AEA39183.1) (see Example 6) for converting N7-acetyl-1,7-diaminoheptane to N7-acetyl-7-aminoheptanal was assayed using a buffer composed of a final concentration of 50 mM HEPES buffer (pH=7.5), 10 mM N7-acetyl-1,7-diaminoheptane, 10 mM pyruvate and 100 μM pyridoxyl 5′ phosphate. Each enzyme activity assay reaction was initiated by adding a cell free extract of the aminotransferases or the empty vector control to the assay buffer containing the N7-acetyl-1,7-diaminoheptane then incubated at 25° C. for 4 h, with shaking at 250 rpm. The formation of L-alanine was quantified via RP-HPLC.
# [2] = Aminotransferase activity, heptane-1,7-diamine to 7-aminoheptanal, L-alanine formation by RP-HPLC; assay type: biochemical; conditions: cell free extract, 10 mM substrate, 25° C., 4 h, against empty vector control, FIG. 50
# Procedure: A sequence encoding an N-terminal His-tag was added to the Chromobacterium violaceum, Pseudomonas aeruginosa, Pseudomonas syringae, Rhodobacter sphaeroides, Escherichia coli, and Vibrio fluvialis genes encoding the aminotransferases of SEQ ID NOs: 116 (GenBank Accession No. AAQ59697.1), 119 (RefSeq Accession No. NP_417544.5), 125 (GenBank Accession No. AAGO8191.1), 126 (GenBank Accession No. AAY39893.1), 127 (GenBank Accession No. ABA81135.1), and 128 (GenBank Accession No. AEA39183.1), respectively such that N-terminal HIS tagged aminotransferases could be produced. The modified genes were cloned into a pET21a expression vector under the T7 promoter. Each expression vector was transformed into a BL21[DE3] E. coli host. Each resulting recombinant E. coli strain were cultivated at 37° C. in a 250 mL shake flask culture containing 50 mL LB media and antibiotic selection pressure, with shaking at 230 rpm. Each culture was induced overnight at 16° C. using 1 mM IPTG.
# (§1) The pellet from each induced shake flask culture was harvested via centrifugation. Each pellet was resuspended and lysed via sonication. The cell debris was separated from the supernatant via centrifugation and the cell free extract was used immediately in enzyme activity assays.
# (§2) Enzyme activity assays in the reverse direction (i.e., heptane-1,7-diamine to 7-aminoheptanal) were performed in a buffer composed of a final concentration of 50 mM HEPES buffer (pH=7.5), 10 mM heptane-1,7-diamine, 10 mM pyruvate, and 100 μM pyridoxyl 5′ phosphate. Each enzyme activity assay reaction was initiated by adding cell free extract of the aminotransferase gene product or the empty vector control to the assay buffer containing the heptane-1,7-diamine and then incubated at 25° C. for 4 h, with shaking at 250 rpm. The formation of L-alanine was quantified via RP-HPLC.
# [3] = Aminotransferase activity, reverse direction (7-aminoheptanoate to 7-oxoheptanoate), L-alanine formation by RP-HPLC; assay type: biochemical; conditions: cell free extract, 10 mM substrate, 25° C., 4 h, against empty vector control, FIG. 48
# Procedure: (§3) A sequence encoding an N-terminal His-tag was added to the genes from Chromobacterium violaceum, Pseudomonas syringae, Rhodobacter sphaeroides, and Vibrio Fluvialis encoding the aminotransferases of SEQ ID NOs: 116 (GenBank Accession No. AAQ59697.1), 126 (GenBank Accession No. AAY39893.1), 127 (GenBank Accession No. ABA81135.1), and 128 (GenBank Accession No. AEA39183.1), respectively such that N-terminal HIS tagged aminotransferases could be produced. Each of the resulting modified genes was cloned into a pET21a expression vector under control of the T7 promoter and each expression vector was transformed into a BL21 [DE3] E. coli host. The resulting recombinant E. coli strains were cultivated at 37° C. in a 250 mL shake flask culture containing 50 mL LB media and antibiotic selection pressure, with shaking at 230 rpm. Each culture was induced overnight at 16° C. using 1 mM IPTG.
# as §1
# as §2, with “7-aminoheptanoate” for “heptane-1,7-diamine”, “7-oxoheptanoate)” for “7-aminoheptanal)”, “7-aminoheptanoate,” for “heptane-1,7-diamine,”, “pyruvate” for “pyruvate,”, “and” for “and then”, “L-alanine from pyruvate” for “L-alanine”
# [4] = In vivo aminotransferase activity screening, 7-aminoheptanoate by LC-MS; assay type: cell-based, Escherichia coli; conditions: in vivo conversion of 7-oxoheptanoate to 7-aminoheptanoate, 120 aminotransferases screened
# Method in brief: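 Aminotransferase library expressed in E. coli T7 Express lysY/Iq co-expressing sfp, CAR_Srot and BioC, grown overnight at 37° C in rich media with 0.4 mM IPTG and 1 g/L monomethyl heptanedioate, heptanedioate or no acid. Culture supernatants analysed by LC-MS for 7-aminoheptanoate or its monomethyl ester.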
# [5] = Aminotransferase activity, forward direction (7-oxoheptanoate to 7-aminoheptanoate), pyruvate formation by RP-HPLC; assay type: biochemical; conditions: cell free extract, 10 mM substrate, 10 mM L-alanine, 25° C., 4 h, against empty vector control, FIG. 49
# Procedure: as §3
# The pellet from each induced shake flask culture was harvested via centrifugation. Each pellet was resuspended and lysed via sonication. […]
# Enzyme activity in the forward direction (i.e., 7-oxoheptanoate to 7-aminoheptanoate) was confirmed for the aminotransferases of SEQ ID NO: 126 (GenBank Accession No. AAY39893.1), SEQ ID NO: 127 (GenBank Accession No. ABA81135.1), and SEQ ID NO: 128 (GenBank Accession No. AEA39183.1). […] The formation of pyruvate was quantified via RP-HPLC.
molecule,measurement,setting,value
"SEQ ID NO: 128: Vibrio fluvialis aminotransferase, positive control of the in vivo screen (protein, listed as Vibrio fluvialis) MNKPQSWEARAETYSLYGFTDMPSLHQRGTVVVTHGEGPYIVDVNGRRYLDANSGLWNMVAGFDHKGLIDAAKAQYERFPGYHAFFGRMSDQTVMLSEKLVEVSPFDSGRVFYTNSGSEANDTMVKMLWFLHAAEGKPQKRKILTRWNAYHGVTAVSASMTGKPYNSVFGLPLPGFVHLTCPHYWRYGEEGETEEQFVARLARELEETIQREGADTIAGFFAEPVMGAGGVIPPAKGYFQAILPILRKYDIPVISDEVICGFGRTGNTWGCVTYDFTPDAIISSKNLTAGFFPMGAVILGPELSKRLETAIEAIEEFPHGFTASGHPVGCAIALKAIDVVMNEGLAENVRRLAPRFEERLKHIAERPNIGEYRGIGFMWALEAVKDKASKTPFDGNLSVSERIANTCTDLGLICRPLGQSVVLCPPFILTEAQMDEMFDKLEKALDKVFAEVA","acceptance of N7-acetyl-1,7-diaminoheptane as substrate, forming N7-acetyl-7-aminoheptanal",[1],"accepted N7-acetyl-1,7-diaminoheptane as a substrate"
same,"acceptance of heptane-1,7-diamine as substrate, forming 7-aminoheptanal",[2],"accepted heptane-1,7-diamine as substrate"
same,acceptance of 7-aminoheptanoate as substrate,[3],accepted 7-aminoheptanote as substrate
same,7-aminoheptanoate yield compared to the positive control (F2XBU9),[4],higher 7-aminoheptanoate yields
same,"acceptance of 7-oxoheptanoate as substrate, forming 7-aminoheptanoate",[5],accepted 7-oxoheptanoate as a substrate

# Reference: US10801046B2, “Methods and materials for biosynthesizing multifunctional, multivariate molecules via carbon chain modification” (INVISTA NORTH AMERICA S.A.R.L., priority 2016, dated 2020)
